Test results as given in patent US20230067757A1 (NOVAROCK BIOTHERAPEUTICS, published 2023).
Substitutions are numbered along the chain they refer to.

B1: NBL-014G (antibody, human IgG1, kappa, V domains shown)
VH: EVQLLESGGGLVQPGGSLRLSCAASGFTFSSFAMTWVRQAPGKGLEWVSSLSGSGRSTYYAASMKGRFTISRDNSKNTLYLQMNSLRAEDTAIYYCAKSLSYYHYYFDYWGQGTLVTVTS
VL: DIQLTQSPSFLSASVGDRVPITCRASQGISNFLAWYQQKPGKAPELLIHSASTLQSGVPSRFSGSGSGTEFTLTISNLQPQDFATYYCQQVNSYPLTFGGGTKVEIKR
modifications: low, or no IgG core fucose (non- or afucosylated)
B2: NBL-014 (antibody, human IgG1, kappa, V domains shown)
VH: B1 VH
VL: B1 VL
B3: Hu-14 (antibody, V domains shown)
VH: EVQLLESGGGLVQPGGSLRLSCAASGITFSSYAMSWVRQVPGKGLEWVSVISGSGGSTYYADSVKGRFTISRDNSKNTLYLQMNSLRAEDTAVYYCAKDRGYDILTTYYDYFYGMDVWGQPEFQHTGG
VL: DIQMTQSPSSLSASVGDRVIITCRASQGIRNDLGWYQQKPGKAPKRLIYAASSLQSGVPSRFSGSGSGTEFTLTISSLQPEDLASYYCLQHNSYPYTFGQGTKLEIK
B4: Hu-16 (antibody, V domains shown)
VH: EVQLLESGGGVVQPGGSLRLSCAASGLIFSSYAMSWVRQAPGKGLEWVSVIGGSGSNTFYADSVKGRFTISRDNSKNTLFLQMNSLRAEDTAVYYCAKDRGYDILTGYYNYYYGMDVWGQGITVTVSS
VL: B3 VL with I20T, L83F, S85T
B5: Hu-5 (antibody, V domains shown)
VH: QVQLVQSGAEVKKPGASVKVSCEASGYTFTSSYMHWVRQAPGQGLEWMGIINPSGGRTNYAQKFQGRVTMTRDTSTSTVYMELSSLRSEDTAVYYCARDHYDIFTTYYPRGMDVWGQGTTVTVSS
VL: B3 VL with I20T, L83F, A84T, S85T, Y94F, Y96F, K103E, K107R
B6: Ms5 (antibody, V domains shown)
VH: QVQLQQPGAELVKPGASVKLSCKASGYTFTRYLMHWVKQRPGQGLEWIGEINPSNGRTNYNEKFKSKAALTVDKSSSTAYMQLSSLTSEDSAVYYCARLAYGYGNAVDYWGQGTSVTVSS
VL: DIVMTQSPSSLSVSAGEKVTMSCKSSQSLLNSGNQKNYLAWYQQKPGQPPKLLIYGASTRESGVPDRFTGSGSGTDFTLTISSVQAEDLAVYYCQNDHSYPLTFGAGTKLELK
B7: Ms10 (antibody, V domains shown)
VH: EVQLQQSGPELEKPGASVKISCKASGYSFTGYKMNWVKQSNGKSLEWIGHIDPYYGGPRYNKKFMGKATLTVDRSSSTAYMQLKSLTSEDSAVYYCARLDYGNSFAYWGQGTLVTVSA
VL: B6 VL with L102F, A106G, L112I
B8: Ms6 (antibody, V domains shown)
VH: QVQLQQSGAELAKPGASVKMSCRASGYTFTSYLMHWIKQRPGQALEWIGYINPTTDYTEYNQKFKGKATLTADKSSSTAYMQLSSLTSEDSAVYYCGRLGYYKRNAMDHWGQGTSVTVSS
VL: B6 VL with S99F
B9: Ms1 (antibody, V domains shown)
VH: EIQLQQSGPELVKPGASVKVSCKASGYAYTRYNMYWVKQSHGKSLEWIGYIDPYNGGTNYNQKFKGKATLTVDKSSSTAYMHLNSLTSEDSAVYYCARGGYYGNAMDYWGQGTSVTVSS
VL: DIVMTQSPSSLTVTAGEKVTMSCKSSQSLLNSGNQKNYLTWYQQKPGQPPKLLIYWASTRESGVPDRFTGSGSGTDFTLTISSVQAEDLSIYYCQSNYIYPFTFGAGTTLELQ
B10: Ms7 (antibody, V domains shown)
VH: EVKLVESGGDLVQPGGSLRLSCTTPGFTFSDFYMEWVRQPPGKRLEWIAASRNKANDYTTENSASVKGRFIVSRDTSQSILYLQMNALRAEDTAIYYCARDACPWDWFAYWGQGTLVTVSA
VL: B6 VL with S12T, S14T, A40T, G56W, H98Y, L102F, A106S, L112I
B11: Ms3 (antibody, V domains shown)
VH: EVMLVESGGGIVKPGGSLKLSCAASGFTLSSYTMSWVRQTPERRLEWVATIIIGGSYTYYPDSVKGRFTISRDNAKNTLYLQMSSLRSEDTAMYYCARQGYGNSFPYWGQGTLVTVSA
VL: B6 VL with S12T, S14T, A40T, G56W, H98Y, L102F, A106S, L112I
B12: Ms8 (antibody, V domains shown)
VH: B9 VH with G26D, Y29F
VL: B9 VL with K51Q
B13: Ms12 (antibody, V domains shown)
VH: EIQLQQSGPELVKPGASVKVSCKASGYAFASYKMYWVKQSHGKSLEWIGYIDPYNGVTSYNQKFRGKATLTVDKSSSTAYMHLNSLTSEDSAVYYCARGAYYGNSFDYWGQGTTLTVSS
VL: DIVMTQSPSSLTVTAGEKVTMSCKSSQSLLNSGNQKNYLTWYQQQPGQPPKLLIYWASTRESGVPDRFTGSGSGTDFTLTISSVQAVDLAVYYCQSAYSFPYTFGGGTKLEVK

Each binder was assayed against human claudin 18 isoform 2 (claudin 18.2) (human) (assay: cell-based or functional assay).

| ADCC EC50, CHO-claudin18.2 cells (human FcγRIIIa reporter bioluminescence) | ADCC EC50, NUGC-4 cells (human FcγRIIIa reporter bioluminescence) | ADCC EC50, PATU8988S cells (human FcγRIIIa reporter bioluminescence) | CDC EC50, CHO-claudin18.2 cells (human serum, flow cytometry) | fold improvement of ADCC EC50 over parental NBL-014, CHO-claudin18.2 cells (human FcγRIIIa reporter bioluminescence) | fold upshift of maximum ADCC effect over parental NBL-014, NUGC-4 cells (human FcγRIIIa reporter bioluminescence) | fold upshift of maximum ADCC effect over parental NBL-014, PATU8988S cells (human FcγRIIIa reporter bioluminescence) | fold improvement of CDC EC50 over PC1 (in-house iMAb36), CHO-claudin18.2 cells (human serum, flow cytometry) | Binder |
| --- | --- | --- | --- | --- | --- | --- | --- | --- |
| 0.02 nM | 0.06 nM | 0.04 nM | 0.3 nM | 35 fold | ~3 fold | ~33 fold | – | B1 |
| 0.73 nM | 0.4 nM | 0.12 nM | 0.22 nM | – | – | – | ~10 fold | B2 |

Molecular target: human claudin 18 isoform 2 (claudin 18.2) (human)
Test: cell-based or functional assay
Remark: another data set of the same source

| ADCC EC50, CHO-18.2 target cells (mouse FcγRIV reporter bioluminescence) | Binder |
| --- | --- |
| 1.51 nM | B3 |
| 3.09 nM | B4 |
| 7.09 nM | B5 |

Molecular target: human claudin 18 isoform 2 (claudin 18.2) (human)
Test: cell-based or functional assay
Remark: another data set of the same source

| Binder | endocytosis derived cell toxicity EC50, CHO-18.2 cells (anti-IgG Fc-MMAF co-internalization) |
| --- | --- |
| B6 | 1.43 nM |
| B7 | 0.96 nM |
| B8 | 1.26 nM |
| B9 | 1.09 nM |
| B10 | 1.12 nM |
| B11 | 1.14 nM |
| B12 | 1.08 nM |
| B13 | 1.07 nM |

Molecular target: human claudin 18 isoform 2 (claudin 18.2) (human)
Test: cell-based or functional assay
Remark: another data set of the same source

| Binder | endocytosis derived cell toxicity EC50, CHO-18.2 cells (anti-IgG Fc-MMAF co-internalization) |
| --- | --- |
| B3 | 1.51 nM |
| B4 | 3.09 nM |
| B5 | 13.4 nM |

These binders were tested against T1, human claudin 18 isoform 2 (claudin 18.2) (human) (assay: immunofluorescence imaging, CHO-CLDN18.2 cells, serial dilution).
T1 construct: Recombinant on transfected CHO cells (CHO-CLDN18.2) or endogenous on tumor cell lines PATU8988S, NUGC-4, KATOIII; the cell line is named under assay; also called CLDN18.2
Procedure: (§1) The specific cellular binding affinity of anti-Claudin18.2 antibodies was tested on CHO-CLDN18.2 (transfected CHO cell expressing recombinant human CLDN18.2) and CHO-CLDN18.1 (transfected CHO cell expressing recombinant human CLDN18.1) cells. The cells were plated in complete media containing F12 with 10% FBS, then incubated overnight at 37° C., anti-Claudin18.2 antibodies were serial diluted and added to the assay plates, incubated at 4° C. for 2 hours, followed by fixing cells and further staining the cells for 30 minutes with Alexa Fluor® 488 Goat Anti-Human IgG (H+L) secondary antibody, invitrogen Cat #A-11013 for detection. The binding was assessed by imaging the cells and quantifying the fluorescence intensity using a Biotek Cytation.

| EC50 | Binder |
| --- | --- |
| 19 nM | B3 |
| 12 nM | B4 |
| 4.5 nM | B5 |
| 1.7 nM | B6 |
| 1.3 nM | B7 |
| 1.2 nM | B8 |
| 1.2 nM | B9 |
| 1.4 nM | B10 |
| 1.8 nM | B11 |
| 1.5 nM | B12 |
| 2 nM | B13 |

What follows are binders tested against T1, human claudin 18 isoform 2 (claudin …) (assay: imaging, PATU8988S cells (endogenous CLDN18.2); +++ = EC50 between 2 nM and 20 nM).

| EC50 | Binder |
| --- | --- |
| 2 to 20 nM | B6 |
| 2 to 20 nM | B7 |
| 2 to 20 nM | B8 |
| 2 to 20 nM | B9 |
| 2 to 20 nM | B10 |
| 2 to 20 nM | B11 |
| 2 to 20 nM | B12 |
| 2 to 20 nM | B13 |

What follows are binders tested against T2, human claudin 18 isoform 1 (claudin 18.1) (human, UniProt P56856 1-261) (assay: immunofluorescence imaging on CHO cells expressing human CLDN18.1, antibody at 10 µg/ml).
T2 construct: Recombinant on transfected CHO cells (CHO-CLDN18.1); also called CLDN18.1
Procedure: as §1

T2 sequence (P56856 whole entry, canonical isoform): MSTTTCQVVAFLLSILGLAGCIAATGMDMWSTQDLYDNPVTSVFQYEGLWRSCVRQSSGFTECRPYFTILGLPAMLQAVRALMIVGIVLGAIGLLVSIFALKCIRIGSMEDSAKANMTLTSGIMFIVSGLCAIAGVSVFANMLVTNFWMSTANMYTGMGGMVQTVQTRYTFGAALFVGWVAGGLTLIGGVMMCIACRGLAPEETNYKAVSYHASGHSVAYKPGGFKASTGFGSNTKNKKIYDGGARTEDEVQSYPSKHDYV

| binding result | Binder |
| --- | --- |
| no binding (tested: 10 µg/ml) | B4 |
| no binding (tested: 10 µg/ml) | B5 |
| no binding (tested: 10 µg/ml) | B6 |
| no binding (tested: 10 µg/ml) | B7 |
| no binding (tested: 10 µg/ml) | B8 |
| no binding (tested: 10 µg/ml) | B9 |
| no binding (tested: 10 µg/ml) | B10 |
| no binding (tested: 10 µg/ml) | B11 |
| no binding (tested: 10 µg/ml) | B12 |
| no binding (tested: 10 µg/ml) | B13 |
